Publication PMC8938253

Molecular target: rhAChE (recombinant human acetylcholinesterase) (Homo sapiens, UniProt P22303 32-614)
Assay: indirect ELISA

Chain of rhAChE (recombinant human acetylcholinesterase) (P22303 32-614): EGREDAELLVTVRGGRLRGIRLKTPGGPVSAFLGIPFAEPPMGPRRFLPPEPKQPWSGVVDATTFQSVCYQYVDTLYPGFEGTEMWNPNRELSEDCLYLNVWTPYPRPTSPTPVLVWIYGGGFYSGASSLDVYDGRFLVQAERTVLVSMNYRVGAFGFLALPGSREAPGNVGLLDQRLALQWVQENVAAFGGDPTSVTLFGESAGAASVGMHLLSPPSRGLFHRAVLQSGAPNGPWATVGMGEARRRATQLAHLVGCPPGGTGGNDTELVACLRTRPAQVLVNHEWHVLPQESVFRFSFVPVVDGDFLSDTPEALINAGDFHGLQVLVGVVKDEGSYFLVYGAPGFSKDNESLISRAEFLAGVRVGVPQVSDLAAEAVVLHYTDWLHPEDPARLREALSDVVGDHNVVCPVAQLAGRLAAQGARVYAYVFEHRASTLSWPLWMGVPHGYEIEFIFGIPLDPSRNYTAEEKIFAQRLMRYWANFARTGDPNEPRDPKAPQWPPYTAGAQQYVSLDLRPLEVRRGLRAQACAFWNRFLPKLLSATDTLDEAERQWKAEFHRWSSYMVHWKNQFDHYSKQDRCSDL

B1: Ob2 (ssDNA)
DNA: TAATACGACTCACTATAGCAATGGTACGGTACTTCCCTTCGAAAACACCCTGCCCCTCACACAAAAGTGCACGCTACTTTGCTAA
Kd: 17.1 ± 9.86 nM
